Holding throughout (assay): luminescence, global fit of progress curves
Type in all cases: biochemical, Oplophorus gracilirostris
Common to all, as to conditions: 100 mM potassium phosphate pH 7.50, 37 °C, co-substrate O2, pH 7.5

Substrate in series [1]: Oc1ccc(Cc2nc3c(Cc4ccccc4)nc(-c4ccc(O)cc4)cn3c2O)cc1
An excerpt: (§1) luminescence, global fit of progress curves on NanoLuc luciferase (NLuc)

Substrate in series [2]: O=c1c(Cc2ccco2)nc2c(Cc3ccccc3)[nH]c(-c3ccccc3)cn1-2
Description: as §1

Substrate in series [3]: Oc1ccc(Cc2nc3c(Cc4ccccc4)nc(-c4ccc(O)cc4)cn3c2O)cc1
This is another data set of the same source.

Substrate in series [4]: O=c1c(Cc2ccco2)nc2c(Cc3ccccc3)[nH]c(-c3ccccc3)cn1-2
This is another data set of the same source.

As usually defined, the Km is the substrate concentration at which the rate is half of its maximum. The term kcat denotes the maximal rate divided by the concentration of active sites. As a reminder, the kcat/Km is the second-order rate constant that governs catalysis at low substrate concentration.

Positions count from the first letter of the chain named. Numbers in names are those of the source.

B1: NanoLuc luciferase (NLuc) (Oplophorus gracilirostris; A31E/A60N/A81I/F95D/I117V/K70R/L54V/L99Q/M102K/N193R/P142E/Q151K/Q38R/Q45L/V71I/Y121A/Y165I) (protein)
chain: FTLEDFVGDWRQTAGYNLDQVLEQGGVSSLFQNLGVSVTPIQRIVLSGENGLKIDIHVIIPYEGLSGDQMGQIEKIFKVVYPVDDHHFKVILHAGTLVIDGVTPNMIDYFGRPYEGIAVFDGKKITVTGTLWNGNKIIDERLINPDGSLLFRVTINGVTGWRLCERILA
notes: engineered 19 kDa catalytic subunit of OLuc (16 residues mutated); monomer in solution, homotetramer in crystals
Consider B1, for which, in series [1], the Km is 3.74 ± 0.09 µM, the kcat was determined as 0.225 ± 0.004 s⁻¹ and the kcat/Km stood at 60000 ± 1000 M⁻¹ s⁻¹. Moreover, in series [2], the Michaelis constant (Km) stood at 1.29 ± 0.02 µM, the kcat was found to be 0.519 ± 0.007 s⁻¹ and the kcat/Km came to 402000 ± 6000 M⁻¹ s⁻¹.

B2: NanoLuc luciferase (NLuc) (Oplophorus gracilirostris; A31E/A60N/A81I/D36R/F95D/I117V/K116R/K70R/L54V/L99Q/M102K/N193R/P142E/Q151K/Q38R/Q45L/V71I/Y165I) (protein)
chain: B1 chain with D9R, K89R, A94Y
notes: as for B1
In the case of B2, in series [3], the Km is 0.46 ± 0.01 µM, the kcat turned out to be 16.8 ± 0.6 s⁻¹ and the kcat/Km was determined as 3.7e+07 ± 1e+06 M⁻¹ s⁻¹. In series [4], the Km was 0.157 ± 0.009 µM, the kcat is 5.2 ± 0.1 s⁻¹ and the kcat/Km amounted to 3.3e+07 ± 2e+06 M⁻¹ s⁻¹.

B3: NanoLuc luciferase (NLuc) (Oplophorus gracilirostris; A31E/A60N/A81I/D36R/F95D/H84A/I117V/K116R/K70R/L54V/L99Q/M102K/N193R/P142E/Q151K/Q38R/Q45L/V71I/Y165I) (protein)
chain: B1 chain with D9R, H57A, K89R, A94Y
notes: as for B1
As for B3, in series [1], the Km came out at 0.77 ± 0.07 µM, the kcat worked out at 40 ± 4 s⁻¹ and the kcat/Km stood at 7e+07 ± 7e+06 M⁻¹ s⁻¹.

(Values after article PMC10687086, “Illuminating the mechanism and allosteric behavior of NanoLuc luciferase” (Nature Communications, 2023).)
